The target of this assay is 3M2e-ferritin nanoparticle (three copies of M2e of H1N1 influenza virus fused to the N terminus of H. pylori ferritin) (influenza A virus H1N1 | Helicobacter pylori). Put plainly: native gel or EMSA.

By stoichiometry N is commonly meant a count of units in the complex or per binding partner. “3M2e-ferritin nanoparticle (three copies of M2e of H1N1 influenza virus fused to the N terminus of H. pylori ferritin)” showed a stoichiometry N of 24.

Source of the values: paper PMC10269571.
